Data as given in patent US12565665B2, “Compositions and methods for controlled mRNA translation and stability” (TRUSTEES OF BOSTON UNIVERSITY, priority 2022, dated 2026).

What was measured:
[1] = system: editable stop codons; experiment: Transfection of in vitro transcribed iADAR mRNA circuits, flow cytometry (mNeonGreen positive cells); format: cell-based, human; conditions: 100 ng mRNA; positive = greater than top 1% of non-transfected cells; ~48 hours
Experimental: In this case, the dADAR and ADAR constructs serve as negative and positive controls respectively. For the BAD(V) construct, cells only express mNeonGreen if A-1331852 is present during the transfection (see e.g., FIG. 61B).
To test this, the 3′ end of the plasmid was subsequently digested using Pmel, a DNA clean-up was performed, ARCA-capped mRNA was transcribed with T7 polymerase, the remaining DNA were digested with DNAse I, and a poly-A tail was added with E. coli Poly(A) Polymerase (all reagents and protocols from NEW ENGLAND BIO's HiScribe® T7 ARCA mRNA Kit (with tailing)). 70,000 HEK293FT cells were then transfected in suspension with 100 ng of each mRNA construct using Lipofectamine™ MessengerMAX™ Transfection Reagent. Cells were also treated with either DMSO or 1 μM of A-1331852. ˜48 hours after transfection, cells were analyzed by flow cytometry. mNeonGreen positive cells were determined as greater than the top 1% of gated non-transfected HEK cells (NT).

[2] = molecular target: NS3a-genotype 1b (Hepatitis C virus genotype 1b, UniProt P26662); conditions: disrupted by NS3a-targeting drugs; read-out: affinity of basal complex; cited from earlier work
[3] = system: 4×UAG MS2 reporter; experiment: 4×UAG MS2 reporter co-transfected with iADAR variants, flow cytometry; format: cell-based, human; conditions: 48 hours, n=3
Experimental: HEK293FT cells were co-transfected with the dual-input iADAR, the 4×UAG-MS2 reporter, and either EGFP(R96M) or EGFP(R96M)-AlfaTag on day 0. At the time of transfection, 500 nM of A-1331852 or DMSO was added to their respective conditions. 48 hours after transfection, cells were lifted and run via flow cytometry. The median mCherry to mNeonGreen ratio was computed for transfected cells were gated by BFP expression and mCherry expression. The experiment was then analyzed via one-way ANOVA (n=3 transfected cell populations per condition).
HEK293FT cells were co-transfected with the 4×UAG MS2 reporter and either an MCP-ADAR containing a peptide insertion at the 5′ RNA binding site (see e.g., FIG. 34b, Pep), grazoprevir iADAR (Pep-NS3) or a mutant version of the iADAR (Pep-NS3 (K690R)). At the time of transfection, 3 μM of DMSO or grazoprevir was added. 48 hours after transfection, cells were lifted and run via flow cytometry. […] The experiment was then analyzed via two-way ANOVA (n=3 transfected cell populations per condition).
To test this, LINC-ADAR constructs were created with WT, L699G, or F697Y mutations (see e.g., FIG. 35b) and HEK293FT cells were co-transfected with them and the 4×UAG-MS2 reporter in the presence of 2 μM grazoprevir or DMSO vehicle. 48 hours after transfection and drug treatment, cells were lifted and analyzed by flow cytometry. […]

MCP_ADAR2-DD(E396A & E488Q)_mCherry_FLAG_P2A_T2A_loop(UAG-UAG)_MS2(C)_HaloTag_loop(UAG-UAG)_MS2(C)_P2A_T2A HA_mNeonGreen(M10K) [dADAR mRNA]
population of mNeonGreen positive cells [1]: insignificant population

MCP_ADAR2-DD(E488Q)_mCherry_FLAG_P2A_T2A_loop(UAG-UAG)_MS2(C)_HaloTag_loop(UAG-UAG)_MS2(C)_P2A_T2A_HA_mNeonGreen(M10K) [ADAR mRNA]
population of mNeonGreen positive cells [1]: significant population of mNeonGreen positive cells

apo NS3a reader peptide, SEQ ID NO: 261, GELDELVYLLDGPGYDPIHSD [ANR]
Kd [2]: 10 nM

B1: dual-input iADAR: N-terminal BAD, ALFA-PE at 5' RNA binding site, ADAR2-DD (F697Y), tandem AlfaNb and Bcl-xL at C-terminus (protein)
chain: MASNFTQFVLVDNGGTGDVTVAPSNFANGIAEWISSNSRSQAYKVTCSVRQSSAQNRKYTIKVEVPKGAWRSYLNMELTIPIFATNSDCELIVKAMQGLLKDGNPIPSAIAANSGIYGGSGSGAGSGSPAGGGAPGSGGGSTGAPPNLWAAQRYGRELRRMSDEFVDSFKKASQLHLPQVLADAVSRLVLGKFGDLTDNFSSPHARRKVLAGVVMTTGTDVKDAKVISVSTGTKCINGEYMSDRGLALNDCHAEIISRRSLLRFLYTQLELYLNNKDDQKRSIFQKSERGGFRLKENVQFHLYISTSPCGDARIFSPHEPILEEPAASGSGPGRLEEELRRRLSPGTGDRHPNRKARGQLRTKIESGQGTIPVRSNASIQTWDGVLQGERLLTMSCSDKIARWNVVGIQGSLLSIFVEPIYFSSIILGSLYHGDHLSRAMYQRISNIEDLPPLYTLNKPLLSGISNAEARQPGKAPNFSVNWTVGDSAIEVINATTGKDELGRASRLCKHALYCRWMRVHGKVPSHLLRSKITKPNVYHESKLAAKEYQAAKARLFTAFIKAGLGAWVEKPTEQDQYSLTGSGGTAEVQLQESGGGLVQPGGSLRLSCTASGVTISALNAMAMGWYRQAPGERRVMVAAVSERGNAMYRESVQGRFTVTRDFTNKMVSLQMDNLKPEDTAVYYCHVLEDRVDSFHDYWGQGTQVTVSSGAGSGASSNRELVVDFLSYKLSQKGYSWSQFSDVEENRTEAPEGTESEMETPSAINGNPSWHLADSPAVNGATGHSSSLDAREVIPMAAVKQALREAGDEFELRYRRAFSDLTSQLHITPGTAYQSFEQVVNELFRDGVNWGRIVAFFSFGGALCVESVDKEMQVLVSRIAAWMATYLNDHLEPWIQENGGWDTFVELYGNNGSSELIKENMHMKLYMEGTVDNHHFKCTSEGEGKPYEGTQTMRIKVVEGGPLPFAFDILATSFLYGSKTFINHTQGIPDFFKQSFPEGFTWERVTTYEDGGVLTATQDTSLQDGCLIYNVKIRGVNFTSNGPVMQKKTLGWEAFTETLYPADGGLEGRNDMALKLVGGSHLIANIKTTYRSKKPAKNLKMPGVYYVDYRLERIKEANNETYVEQHEVAVARYCDLPSKLGHKLN
median relative fluorescence with both A-1331852 and EGFP(R96M)-AlfaTag, fold greater than AlfaTag alone ([3]; 500 nM of A-1331852): ~4.6 × | median relative fluorescence with AlfaTag and DMSO vs negative condition or A-1331852 treatment ([3]; one-way ANOVA): significantly higher
